According to PMC5389526:

Target: T1, Cas1-Cas2 complex (native Cas1 + Cas2-His6) (Escherichia coli, UniProt Q46896;P45956 1-305;1-94)
T1 sequence 1: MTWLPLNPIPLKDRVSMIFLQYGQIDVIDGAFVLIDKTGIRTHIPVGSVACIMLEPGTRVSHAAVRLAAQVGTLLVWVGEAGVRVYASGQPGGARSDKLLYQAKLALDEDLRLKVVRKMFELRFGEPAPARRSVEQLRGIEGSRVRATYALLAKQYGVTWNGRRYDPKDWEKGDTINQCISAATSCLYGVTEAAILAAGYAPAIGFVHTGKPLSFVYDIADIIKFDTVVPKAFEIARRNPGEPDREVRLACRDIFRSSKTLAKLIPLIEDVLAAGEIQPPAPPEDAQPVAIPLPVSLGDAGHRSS
T1 sequence 2: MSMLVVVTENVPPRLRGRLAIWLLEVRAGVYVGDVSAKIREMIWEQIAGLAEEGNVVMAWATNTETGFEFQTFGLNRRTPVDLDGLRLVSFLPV
Experiment: EMSA

ATTTCAGCTACTCCGATGGCCCATATGCGGATT (ssDNA) [S1 oligonucleotide]
binding result: no binding

ATTTCAGCTACTCCGATGGCCCATATGCGGATC (ssDNA) [S2 oligonucleotide]
binding result: no binding
